From the supplement of paper PMC9170038

Tests used:
MS2 coat protein [1] = test: apparent KD of MS2 coat protein, switch ON state; designed switch direction (-1 OFF switch, 1 ON switch): 1; higher = weaker reporter binding; settings: FMN input: 0 or 200 uM; Eterna round: R93 (includes R88 designs)
In short: (§1)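 Values are apparent KD, taken as the median for each design of fits to normalised binding curves from individual clusters. The designed RNA switches were transcribed on-chip from Illumina sequencing clusters and exposed to SNAP-549-labelled MS2 coat protein at twofold increasing amounts from 0.7 or 1.5 nM to 3 µM. Titration used 100 mM Tris-HCl pH 7.5, 80 mM KCl and 4 mM MgCl2, without or with constant ligand.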

MS2 coat protein [2] = test: apparent KD of MS2 coat protein, switch OFF state (with FMN for OFF switches, without FMN for ON switches); designed switch direction (-1 OFF switch, 1 ON switch): 1; higher = weaker reporter binding; settings: FMN input: 0 or 200 uM; Eterna round: R93 (includes R88 designs)
In short: as §1

Sequence | apparent KD of MS2 coat protein (MS2 coat protein [1]) [nM] | apparent KD of MS2 coat protein (MS2 coat protein [2]) [nM]
AAAAAACAUGAGGAUCACCCAUGUAAUAAAACGUCAGGAUAUUGAUUUUAUUAUUUAUUACAAGAAGGGACAAAAA [Same State 1 - Omei 1] | 35 | 55
CUUUCCGCGCUAUAGGAUAUGAAUGAACCUACAUGAGGAUCACCCAUGUCGAACUCGGUCCAAAAUCAGAAGGAUGGCGAGGCGC [Oratis] | 119 | 178
GAGGACAUAGUACAGGAUAUAUGAAUAGUCACAUGAGGAUCACCCAUGUCCAUUUAUAUGGGCACAUAGAAGGGUGGUAGUUAUC [SameState2 Malc#27] | 24.6 | 347
GGGAGACAUGAGGAUCACCCAUGUGAGAAGAGGCGAGGAUAUCGAAAGAAAGAAGAGAAACGAGAAGGCGCGAGCC [salish99-SS1-064] | 94.2 | 66.4
GGGAGACAUGAGGAUCACCCAUGUAGAAGGAUGGGAGGAUAUACAAAGACGAGAGUCAGAGUAGAAGGCCUAGGAA [salish99-ss1-189-4KCAL] | 29 | 58.5
AGAAAGAAAAGAGAGGAUAUCUAAAAGAAAACAUGAGGAUCACCCAUGUAAAAGAAAAGAAAAUGGGAGAAGGCUUAUGAGAAAG [JL Skelter Mod 8 In the Red] | 107 | 82
CGAAAGUAUGCACAGGAUAUGUACAGGCUAACAUGAGGAUCACCCAUGUGAAAAUGGACCAUGUCGCAGAAGGGUGCCCUCCCGA [Mageor] | 22.1 | 40.2
AAAAAACAUGAGGAUCACCCAUGUAAAAAAAUCGCAGGAUAUACGGUCGCGAAAGCGACCGUAGAAGGGCGAUCCU [Louisiana 3 - Jieux - Same State 1] | 59.1 | 75.3
AAAAAACAUGAGGAUCACCCAUGUAAUACAACAUCAGGAUAUUGAUUUUACUAUGUAUUGCAAGAAGGGAUGAAAA [Same State 1.3a (Same State 1 - Omei 2 )] | 71.2 | 45.2
GAUAAACAUGAGGAUCACCCAUGUAGAUAUAUGGGAGGAUAUACAAAGACGAUAGUCAAAGUAGAAGGCCUAAUAG [77%, Mat - Mod of Eli - With 4 more U's] | 29.6 | 84
AAUAUACAUGAGGAUCACCCAUGUUUUAAUAGCUGAGGAUAUACGGGUGAAAACAGCAUAGUAGAAGGCGGGUGUA [SameState1 Malc#8] | 99.6 | 115
AUAAAACAUGAGGAUCACCCAUGUCAAGGCUAUCAAGGAUAUAGGAAGCGUAGCGGUUGACUAGAAGGUGAGAAAU [Ragexequ] | 66.9 | 52.4
AAAAAAGAUCUAGAGGAUAUCCGAGUGGUAACAUGAGGAUCACCCAUGUGAAGAAAGGAACAUGAGGAGAAGGCUAGAUCAAAAA [JL Nando Mod 1] | 7.87 | 10.7
AUAAAAUAAAGUCAGGAUAUCUAUAAUAAAACAUGAGGAUCACCCAUGUUAAAAAAAAGAUCAUGGGAGAAGGGACAAAAUAAAU [SS2 M 32] | 27 | 28.3
CCCAAUGCAACGAAGGAUAUCCGUCAUGCUACAUGAGGAUCACCCAUGUACUGGCAGCGCAAGGCGGAGAAGGUCGGGUGCUGUG [Leusesbe] | 12 | 12.6
AUAAAACAUGAGGAUCACCCAUGUAGAAAUAUGGGAGGAUAUACUAGAUCGAAAGAUCUAGUAGAAGGCCUUUAUA [JL Mod of Eli 6] | 19.9 | 45.9

Sequence | apparent KD of MS2 coat protein (MS2 coat protein [1]) [nM] | apparent KD of MS2 coat protein (MS2 coat protein [2]) [nM]
AUGAAUAGCAUCGAGGAUAUCCAGUCAUGAACAUGAGGAUCACCCAUGUAAGAGAGAGUAUAAUGGGAGAAGGCGAGUAAUCGAU [JR_SS002_Sub1703] | 40.3 | 105
AAAAAAAAAAGACAGGAUAUCCAAAAAAAAACAUGAGGAUCACCCAUGUAAAAAAAAAAAAAGUGGGAGAAGGGUCAAAAAAAAAA [Louisiana 4 - Jieux - Same State 2] | 24.9 | 38.4
CGGAAGGAGAGAGAGGAUAUCCAAAGGAAAACAUGAGGAUCACCCAUGUAGAAGGUAGGAAAUUGGGAGAAGGCUCAAGAGAUAG [salish99-ss2-124] | 20.6 | 39.1
GAAAAACAUGAGGAUCACCCAUGUGAAAACUUGGGAGGAUAUACAAAGACGAAAGUCGAAGUAGAAGGCCUAUAAG [Same State 1.4l (Mat - Mod of Eli - )] | 21.1 | 85.9
AGCGAACAUGAGGAUCACCCAUGUGAAAAACAUAGAGGAUAUGUCGCAUGAGUGUAAAAGACAGAAGGCUAUCGCA [Mod of Nando] | 38.8 | 116
GGGAGGAAGAGAGAGGAUAUCCAAAGGAAAACAUGAGGAUCACCCAUGUAAAAGGUAGGAAAUUGGGAGAAGGCUCAAGAGAACG [salish99-ss2-056] | 25.5 | 28.9
GAGAGACAUGAGGAUCACCCAUGUAGGAUUAUGGGAGGAUAUACAAAGACGAGAGUCAGAGUAGAAGGCCUAGGAA [salish99-ss1-137(!)] | 24.2 | 74.4
AGCAUCACCAGUCAGGAUAUGUAGGCCUUGACAUGAGGAUCACCCAUGUGGACGAAACACCGGCCACAGAAGGGAUUGUAAAUAA [Ries] | 434 | 67.4
AAUACACAUGAGGAUCACCCAUGUAGAAAGAAGUCAGGAUAUCCGAUCCACAUGUGAUAAGGAGAAGGGACAAUAA [SS 1 Tesla 8] | 19.6 | 95.4
AGACAUAAAAGAGAGGAUAUCCAAAAGAAAACAUGAGGAUCACCCAUGUGAAAGAAAAUAAAAUGGGAGAAGGCUCACAUACAGA [Topaz 36] | 14.1 | 27.4
GAAAAACAUGAGGAUCACCCAUGUGUAAAUAUGGGAGGAUAUACAAAGACGUAAGUCAAAGUAGAAGGCCUAAAAG [Mat - Same State 1 - Eli mod - D12] | 29.9 | 95.1
CGAAAGGAGAGAGAGGAUAUCCAAAGGAAAACAUGAGGAUCACCCAUGUAGAAGGUAGGAGAUUGGGAGAAGGCUCAAGAGAGUA [salish99-ss2-149] | 25.7 | 36.3
GAGAGGAAGAGAGAGGAUAUCCAAAGGAAAACAUGAGGAUCACCCAUGUAAAAGGUAGGAAAUUGGGAGAAGGCUCAAGAGAGAG [salish99-ss2-063] | 29.1 | 29.6
GACGAACAUGAGGAUCACCCAUGUAAAAACGUACAAGGAUAUGUGUGGAAACCGUACUAUACAGAAGGUGUCUGUC [SS1 - 96] | 37.3 | 38.6
AAAAACGUGGCGUAGGAUAUACUAAUAUUCACAUGAGGAUCACCCAUGUUCAUAUAUAUGAACGAGUAGAAGGACGACGAAAAAA [Mat - Same state - Malcolm Mod - D106] | 29.5 | 107
UGGAAACAUGAGGAUCACCCAUGUAAAAGGUGGUUAGGAUAUGCAAAACGGAAAACGAAAGCAGAAGGGACAAAAA [Inspired by JR and Meechl] | 130 | 320
